According to patent US10801046B2, “Methods and materials for biosynthesizing multifunctional, multivariate molecules via carbon chain modification” (INVISTA NORTH AMERICA S.A.R.L., priority 2016, dated 2020):

B1: SEQ ID NO: 27: Mycobacterium smegmatis fatty-acid-CoA ligase with carboxylate reductase activity (protein)
chain: MTIETREDRFNRRIDHLFETDPQFAAARPDEAISAAAADPELRLPAAVKQILAGYADRPALGKRAVEFVTDEEGRTTAKLLPRFDTITYRQLAGRIQAVTNAWHNHPVNAGDRVAILGFTSVDYTTIDIALLELGAVSVPLQTSAPVAQLQPIVAETEPKVIASSVDFLADAVALVESGPAPSRLVVFDYSHEVDDQREAFEAAKGKLAGTGVVVETITDALDRGRSLADAPLYVPDEADPLTLLIYTSGSTGTPKGAMYPESKTATMWQAGSKARWDETLGVMPSITLNFMPMSHVMGRGILCSTLASGGTAYFAARSDLSTFLEDLALVRPTQLNFVPRIWDMLFQEYQSRLDNRRAEGSEDRAEAAVLEEVRTQLLGGRFVSALTGSAPISAEMKSWVEDLLDMHLLEGYGSTEAGAVFIDGQIQRPPVIDYKLVDVPDLGYFATDRPYPRGELLVKSEQMFPGYYKRPEITAEMFDEDGYYRTGDIVAELGPDHLEYLDRRNNVLKLSQGEFVTVSKLEAVFGDSPLVRQIYVYGNSARSYLLAVVVPTEEALSRWDGDELKSRISDSLQDAARAAGLQSYEIPRDFLVETTPFTLENGLLTGIRKLARPKLKAHYGERLEQLYTDLAEGQANELRELRRNGADRPVVETVSRAAVALLGASVTDLRSDAHFTDLGGDSLSALSFSNLLHEIFDVDVPVGVIVSPATDLAGVAAYIEGELRGSKRPTYASVHGRDATEVRARDLALGKFIDAKTLSAAPGLPRSGTEIRTVLLTGATGFLGRYLALEWLERMDLVDGKVICLVRARSDDEARARLDATFDTGDATLLEHYRALAADHLEVIAGDKGEADLGLDHDTWQRLADTVDLIVDPAALVNHVLPYSQMFGPNALGTAELIRIALTTTIKPYVYVSTIGVGQGISPEAFVEDADIREISATRRVDDSYANGYGNSKWAGEVLLREAHDWCGLPVSVFRCDMILADTTYSGQLNLPDMFTRLMLSLVATGIAPGSFYELDADGNRQRAHYDGLPVEFIAEAISTIGSQVTDGFETFHVMNPYDDGIGLDEYVDWLIEAGYPVHRVDDYATWLSRFETALRALPERQRQASLLPLLHNYQQPSPPVCGAMAPTDRFRAAVQDAKIGPDKDIPHVTADVIVKYISNLQMLGLL
modifications: Mycobacterium smegmatis (strain ATCC 700084 / mc(2)155)
B2: SEQ ID NO: 125: Pseudomonas aeruginosa aminotransferase (protein, listed as Pseudomonas aeruginosa)
chain: MNARLHATSPLGDADLVRADQAHYMHGYHVFDDHRVNGSLNIAAGDGAYIYDTAGNRYLDAVGGMWCTNIGLGREEMARTVAEQTRLLAYSNPFCDMANPRAIELCRKLAELAPGDLDHVFLTTGGSTAVDTAIRLMHYYQNCRGKRAKKHVITRINAYHGSTFLGMSLGGKSADRPAEFDFLDERIHHLACPYYYRAPEGLGEAEFLDGLVDEFERKILELGADRVGAFISEPVFGSGGVIVPPAGYHRRMWELCQRYDVLYISDEVVTSFGRLGHFFASQAVFGVQPDIILTAKGLTSGYQPLGACIFSRRIWEVIAEPDKGRCFSHGFTYSGHPVACAAALKNIEIIEREGLLAHADEVGRYFEERLQSLRDLPIVGDVRGMRFMACVEFVADKASKALFPESLNIGEWVHLRAQKRGLLVRPIVHLNVMSPPLILTREQVDTVVRVLRESIEETVEDLVRAGHR
modifications: Pseudomonas aeruginosa (strain ATCC 15692 / DSM 22644 / CIP 104116 / JCM 14847 / LMG 12228 / 1C / PRS 101 / PAO1)
notes: Pseudomonas aeruginosa aminotransferase
B3: SEQ ID NO: 119: Escherichia coli aminotransferase, gene product of ygjG (protein)
chain: MNRLPSSASALACSAHALNLIEKRTLDHEEMKALNREVIEYFKEHVNPGFLEYRKSVTAGGDYGAVEWQAGSLNTLVDTQGQEFIDCLGGFGIFNVGHRNPVVVSAVQNQLAKQPLHSQELLDPLRAMLAKTLAALTPGKLKYSFFCNSGTESVEAALKLAKAYQSPRGKFTFIATSGAFHGKSLGALSATAKSTFRKPFMPLLPGFRHVPFGNIEAMRTALNECKKTGDDVAAVILEPIQGEGGVILPPPGYLTAVRKLCDEFGALMILDEVQTGMGRTGKMFACEHENVQPDILCLAKALGGGVMPIGATIATEEVFSVLFDNPFLHTTTFGGNPLACAAALATINVLLEQNLPAQAEQKGDMLLDGFRQLAREYPDLVQEARGKGMLMAIEFVDNEIGYNFASEMFRQRVLVAGTLNNAKTIRIEPPLTLTIEQCELVIKAARKALAAMRVSVEEA
modifications: Escherichia coli (strain K12)
notes: Escherichia coli aminotransferase, gene product of ygjG
B4: SEQ ID NO: 25: Mycobacterium marinum carboxylate reductase (protein)
chain: MSPITREERLERRIQDLYANDPQFAAAKPATAITAAIERPGLPLPQIIETVMTGYADRPALAQRSVEFVTDAGTGHTTLRLLPHFETISYGELWDRISALADVLSTEQTVKPGDRVCLLGFNSVDYATIDMTLARLGAVAVPLQTSAAITQLQPIVAETQPTMIAASVDALADATELALSGQTATRVLVFDHHRQVDAHRAAVESARERLAGSAVVETLAEAIARGDVPRGASAGSAPGTDVSDDSLALLIYTSGSTGAPKGAMYPRRNVATFWRKRTWFEGGYEPSITLNFMPMSHVMGRQILYGTLCNGGTAYFVAKSDLSTLFEDLALVRPTELTFVPRVWDMVFDEFQSEVDRRLVDGADRVALEAQVKAEIRNDVLGGRYTSALTGSAPISDEMKAWVEELLDMHLVEGYGSTEAGMILIDGAIRRPAVLDYKLVDVPDLGYFLTDRPHPRGELLVKTDSLFPGYYQRAEVTADVFDADGFYRTGDIMAEVGPEQFVYLDRRNNVLKLSQGEFVTVSKLEAVFGDSPLVRQIYIYGNSARAYLLAVIVPTQEALDAVPVEELKARLGDSLQEVAKAAGLQSYEIPRDFIIETTPWTLENGLLTGIRKLARPQLKKHYGELLEQIYTDLAHGQADELRSLRQSGADAPVLVTVCRAAAALLGGSASDVQPDAHFTDLGGDSLSALSFTNLLHEIFDIEVPVGVIVSPANDLQALADYVEAARKPGSSRPTFASVHGASNGQVTEVHAGDLSLDKFIDAATLAEAPRLPAANTQVRTVLLTGATGFLGRYLALEWLERMDLVDGKLICLVRAKSDTEARARLDKTFDSGDPELLAHYRALAGDHLEVLAGDKGEADLGLDRQTWQRLADTVDLIVDPAALVNHVLPYSQLFGPNALGTAELLRLALTSKIKPYSYTSTIGVADQIPPSAFTEDADIRVISATRAVDDSYANGYSNSKWAGEVLLREAHDLCGLPVAVFRCDMILADTTWAGQLNVPDMFTRMILSLAATGIAPGSFYELAADGARQRAHYDGLPVEFIAEAISTLGAQSQDGFHTYHVMNPYDDGIGLDEFVDWLNESGCPIQRIADYGDWLQRFETALRALPDRQRHSSLLPLLHNYRQPERPVRGSIAPTDRFRAAVQEAKIGPDKDIPHVGAPIIVKYVSDLRLLGLL
modifications: Mycobacterium marinum (strain ATCC BAA-535 / M)
notes: Mycobacterium marinum carboxylate reductase

Columns and labels:
Type in all cases: biochemical
[1] = Carboxylate reductase activity, 7-hydroxyheptanoate to 7-hydroxyheptanal, NADPH consumption at 340 nm; details: enhanced by gene product of sfp, 20 min, against empty vector control, FIG. 44
Procedure: A sequence encoding a His-tag was added to the genes from Mycobacterium marinum, Mycobacterium smegmatis, Segniliparus rugosus, Mycobacterium smegmatis, Mycobacterium massiliense, and Segniliparus rotundus that encode the carboxylate reductases of SEQ ID NOs: 25 (GenBank Accession No. ACC40567.1), 27 (GenBank Accession No. ABK75684.1), 29 (GenBank Accession No. ABK71854.1), 31 (GenBank Accession No. EFV11917.1), 37 (GenBank Accession No. EIV11143.1), and 38 (GenBank Accession No. ADG98140.1) such that N-terminal HIS tagged carboxylate reductases could be produced. Each of the modified genes was cloned into a pET Duet expression vector alongside a sfp gene encoding a His-tagged phosphopantetheine transferase from Bacillus subtilis, both under control of the T7 promoter.
Each expression vector was transformed into a BL21[DE3] E. coli host and the resulting recombinant E. coli strains were cultivated at 37° C. in a 250 mL shake flask culture containing 50 mL LB media and antibiotic selection pressure, with shaking at 230 rpm. Each culture was induced overnight at 37° C. using an auto-induction media.
The pellet from each induced shake flask culture was harvested via centrifugation. Each pellet was resuspended and lysed via sonication. The cell debris was separated from the supernatant via centrifugation. The carboxylate reductases and phosphopantetheine transferase were purified from the supernatant using Ni-affinity chromatography, diluted 10-fold into 50 mM HEPES buffer (pH=7.5) and concentrated via ultrafiltration.
Enzyme activity (i.e., 7-hydroxyheptanoate to 7-hydroxyheptanal) assays were performed in triplicate in a buffer composed of a final concentration of 50 mM HEPES buffer (pH=7.5), 2 mM […], 10 mM MgCl2, 1 mM ATP, and 1 mM NADPH. Each enzyme activity assay reaction was initiated by adding purified carboxylate reductase and phosphopantetheine transferase or the empty vector control to the assay buffer containing the 7-hydroxyheptanoate and then incubated at room temperature for 20 min. The consumption of NADPH was monitored by absorbance at 340 nm.

[2] = Aminotransferase activity, heptane-1,7-diamine to 7-aminoheptanal, L-alanine formation by RP-HPLC; details: cell free extract, 10 mM substrate, 25° C., 4 h, against empty vector control, FIG. 50
Procedure: A sequence encoding an N-terminal His-tag was added to the Chromobacterium violaceum, Pseudomonas aeruginosa, Pseudomonas syringae, Rhodobacter sphaeroides, Escherichia coli, and Vibrio fluvialis genes encoding the aminotransferases of SEQ ID NOs: 116 (GenBank Accession No. AAQ59697.1), 119 (RefSeq Accession No. NP_417544.5), 125 (GenBank Accession No. AAGO8191.1), 126 (GenBank Accession No. AAY39893.1), 127 (GenBank Accession No. ABA81135.1), and 128 (GenBank Accession No. AEA39183.1), respectively such that N-terminal HIS tagged aminotransferases could be produced. The modified genes were cloned into a pET21a expression vector under the T7 promoter. Each expression vector was transformed into a BL21[DE3] E. coli host. Each resulting recombinant E. coli strain were cultivated at 37° C. in a 250 mL shake flask culture containing 50 mL LB media and antibiotic selection pressure, with shaking at 230 rpm. Each culture was induced overnight at 16° C. using 1 mM IPTG.
The pellet from each induced shake flask culture was harvested via centrifugation. Each pellet was resuspended and lysed via sonication. The cell debris was separated from the supernatant via centrifugation and the cell free extract was used immediately in enzyme activity assays.
Enzyme activity assays in the reverse direction (i.e., heptane-1,7-diamine to 7-aminoheptanal) were performed in a buffer composed of a final concentration of 50 mM HEPES buffer (pH=7.5), 10 mM heptane-1,7-diamine, 10 mM pyruvate, and 100 μM pyridoxyl 5′ phosphate. Each enzyme activity assay reaction was initiated by adding cell free extract of the aminotransferase gene product or the empty vector control to the assay buffer containing the heptane-1,7-diamine and then incubated at 25° C. for 4 h, with shaking at 250 rpm. The formation of L-alanine was quantified via RP-HPLC.

[3] = Aminotransferase activity, N7-acetyl-1,7-diaminoheptane to N7-acetyl-7-aminoheptanal, L-alanine formation by RP-HPLC; details: cell free extract, 10 mM substrate, 25° C., 4 h, against empty vector control, FIG. 51
Procedure: The activity of the N-terminal His-tagged aminotransferases of SEQ ID NOs: 116 (GenBank Accession No. AAQ59697.1), 119 (RefSeq Accession No. NP_417544.5), 125 (GenBank Accession No. AAGO8191.1), 126 (GenBank Accession No. AAY39893.1), 127 (GenBank Accession No. ABA81135.1), and 128 (GenBank Accession No. AEA39183.1) (see Example 6) for converting N7-acetyl-1,7-diaminoheptane to N7-acetyl-7-aminoheptanal was assayed using a buffer composed of a final concentration of 50 mM HEPES buffer (pH=7.5), 10 mM N7-acetyl-1,7-diaminoheptane, 10 mM pyruvate and 100 μM pyridoxyl 5′ phosphate. Each enzyme activity assay reaction was initiated by adding a cell free extract of the aminotransferases or the empty vector control to the assay buffer containing the N7-acetyl-1,7-diaminoheptane then incubated at 25° C. for 4 h, with shaking at 250 rpm. The formation of L-alanine was quantified via RP-HPLC.

Row | Molecule | acceptance of 7-hydroxyheptanoate as substrate, forming 7-hydroxyheptanal [1] | acceptance of heptane-1,7-diamine as substrate, forming 7-aminoheptanal [2] | acceptance of N7-acetyl-1,7-diaminoheptane as substrate, forming N7-acetyl-7-aminoheptanal [3]
1 | B1 | accepted 7-hydroxyheptanoate as substrate |  | 
2 | B2 |  | accepted heptane-1,7-diamine as substrate | accepted N7-acetyl-1,7-diaminoheptane as a substrate
3 | B3 |  | accepted heptane-1,7-diamine as substrate | accepted N7-acetyl-1,7-diaminoheptane as a substrate
4 | B4 | accepted 7-hydroxyheptanoate as substrate |  | 
